Source: US12068729B2, “Anti-factor XII/XIIa antibodies and uses thereof” (Regeneron Pharmaceuticals, Inc., priority 2018, dated 2024)

T1: human FXII (Homo sapiens, UniProt P00748)
T1 construct: plasma purified human FXII and FXIIa proteins (Enzyme Research Laboratories); purchased Enzyme Research Laboratories 1212; host or cells: human plasma (said of the same vendor's proteins used as immunogen)
T1 sequence (P00748 20-615): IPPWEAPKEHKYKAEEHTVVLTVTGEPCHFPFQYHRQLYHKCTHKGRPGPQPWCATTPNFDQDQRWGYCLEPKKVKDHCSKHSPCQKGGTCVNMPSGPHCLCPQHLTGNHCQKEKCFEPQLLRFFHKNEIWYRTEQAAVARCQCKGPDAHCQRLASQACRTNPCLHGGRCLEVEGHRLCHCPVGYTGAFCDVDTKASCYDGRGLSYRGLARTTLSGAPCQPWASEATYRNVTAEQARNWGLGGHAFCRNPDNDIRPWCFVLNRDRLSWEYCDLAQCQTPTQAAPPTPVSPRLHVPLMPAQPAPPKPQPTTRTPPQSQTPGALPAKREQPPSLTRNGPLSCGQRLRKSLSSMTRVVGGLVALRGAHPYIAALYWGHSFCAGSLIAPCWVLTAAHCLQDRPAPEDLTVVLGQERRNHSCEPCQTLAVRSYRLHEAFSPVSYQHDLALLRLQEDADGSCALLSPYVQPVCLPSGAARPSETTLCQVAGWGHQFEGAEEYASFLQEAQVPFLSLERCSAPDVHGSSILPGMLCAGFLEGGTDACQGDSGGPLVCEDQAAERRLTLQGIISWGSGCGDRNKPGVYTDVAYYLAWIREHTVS

T2: human FXIIa (Homo sapiens, UniProt P00748)
T2 construct: Factor XIIa, a beta-globulin plasma serine protease composed of an amino-terminal heavy chain and a carboxy-terminal light chain; purchased Enzyme Research Laboratories 1212a; host or cells: human plasma (said of the same vendor's proteins used as immunogen)
T2 sequence (P00748 20-372 limits assumed): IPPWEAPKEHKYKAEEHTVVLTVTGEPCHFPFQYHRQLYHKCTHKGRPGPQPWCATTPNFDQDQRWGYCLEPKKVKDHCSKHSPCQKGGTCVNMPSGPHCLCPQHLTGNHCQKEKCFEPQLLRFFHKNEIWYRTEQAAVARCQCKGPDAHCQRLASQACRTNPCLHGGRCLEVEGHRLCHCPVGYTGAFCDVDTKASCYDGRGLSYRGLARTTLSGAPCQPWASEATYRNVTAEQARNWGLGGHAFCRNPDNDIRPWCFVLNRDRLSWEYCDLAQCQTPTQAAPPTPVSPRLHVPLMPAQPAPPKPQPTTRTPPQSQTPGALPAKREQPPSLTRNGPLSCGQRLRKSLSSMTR
T2 sequence (P00748 373-615 limits assumed): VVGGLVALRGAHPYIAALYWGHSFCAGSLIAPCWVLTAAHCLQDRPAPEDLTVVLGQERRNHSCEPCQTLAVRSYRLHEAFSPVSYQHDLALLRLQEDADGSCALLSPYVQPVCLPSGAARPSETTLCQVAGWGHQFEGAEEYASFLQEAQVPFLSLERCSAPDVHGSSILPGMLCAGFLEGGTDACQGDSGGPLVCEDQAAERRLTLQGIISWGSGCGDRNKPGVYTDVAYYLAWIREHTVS

B1: mAb26048: fully human anti-FXII/FXIIa monoclonal antibody, HCVR/LCVR SEQ ID NOs: 18/26 (antibody, V domains shown)
VH: EVQLVESGGGLVQPRGSLRLSCVASGFTFSDYGMSWVRQAPGKGLEWVSVIGGAGHGTYYADSVKGRFTISRDNSRNTLYLQMNSLRDEDTAVYYCAKKYYWNYVGGMDVWGRGTTVTVSS
VL: DIQMTQSPSSVSASVGDRVTITCRASQDINNWLAWYQQKPGKAPKLLISTASSLQSGVPSRFSGSGSGTDFTLTISSLQPEDFATYYCQQANSLPFTFGPGTKVDIK
B2: mAb26036: fully human anti-FXII/FXIIa monoclonal antibody, HCVR/LCVR SEQ ID NOs: 2/10 (antibody, V domains shown)
VH: QVQLVQSGAEVKKPGASVTVSCKASGYTFTSYYLHWVRQAPGQGLEWMGIINPSGGSTSYAQKFQGRVTMTRDTSTSTVYMELSSLRSEDTAVYYCARGVTTVTTYYHYYNMDVWGQGTTVTVSS
VL: DIQMTQSPSSLSASVGDRVTITCRASQGISNYLAWFQQKPGKAPKSLIYAASSLQSGVPSKFSGSGSGTDFTLTISSLQPEDFATYYCQKYNTYPLTFGGGTKVEIK
B3: mAb26049: fully human anti-FXII/FXIIa monoclonal antibody, HCVR/LCVR SEQ ID NOs: 34/42 (antibody, V domains shown)
VH: EVQLVESGGDLVQPGGSLRLSCAASGFTFNTYAMHWVRQAPGKGLEYISAIDTKGGSTYYADSVKGRFTISRDNSKNAQYLQMDSLRVEDMAVYYCARGFGLDVWGQGTTVTVSS
VL: DVVMTQSPLSLAVTLGQPASISCRSSQSLGYSDGNTYLNWFQQRPGQSPRRLIYKVSNRDSGVPDRFSGSGSGTDFTLKINRVETVDVGVYYCMQATHWPYTFGQGTKLEIK

These molecules were tested against T1, human FXII (assay: Surface plasmon resonance (Biacore 4000) binding kinetics, hFXII). Details: 25° C.
Procedure: (§1) Equilibrium dissociation constant (KD) for different FXII reagents binding to purified anti-FXII monoclonal antibodies were determined using a real-time surface plasmon resonance based Biacore 4000 biosensor. All binding studies were performed in 10 mM HEPES, 300 mM NaCl, and 0.05% v/v Surfactant Tween-20, pH 7.4 (HBS-P) running buffer at 25° C. and 37° C. The Biacore CM5 sensor chip surface was first derivatized by amine coupling with the mouse anti-human Fc specific monoclonal antibody (GE Healthcare Cat #BR100839) to capture anti-FXII monoclonal antibodies. Binding studies were performed on human FXII and FXIIa (Enzyme Research Laboratories, Cat #1212 and 1212a, respectively). Different concentrations of hFXII and hFXIIa (50 nM-3.125 nM; 2-fold serial dilution) were first prepared in HBS-P running buffer and were injected over anti-human Fc captured anti-FXII monoclonal antibody surface for 3 minutes at a flow rate of 30 uL/minute, while the dissociation of monoclonal antibody bound FXII reagent was monitored for 5 minutes in HBS-P running buffer. The association rate (ka) and dissociation rate (kd) were determined by fitting the real-time binding sensorgrams to a 1:1 binding model with mass transport limitation using Scrubber 2.0c curve-fitting software. Binding dissociation equilibrium constant (KD) and dissociative half-life (t½) were calculated from the kinetic rates as: […]

Row | Molecule | Kd [nM] | ka [M⁻¹ s⁻¹] | kd [s⁻¹] | t½ [min]
1 | B1 | 0.879 | 361000 | 0.000317 | 36.5
2 | B2 | 3.12 | 76300 | 0.000238 | 48.5
3 | B3 | 2.74 | 90100 | 0.000247 | 46.7

Same assay, conditions: 37° C.

Row | Molecule | Kd [nM] | ka [M⁻¹ s⁻¹] | kd [s⁻¹] | t½ [min]
4 | B1 | 2.53 | 276000 | 0.000698 | 17
5 | B2 | 4.62 | 121000 | 0.00056 | 20.6
6 | B3 | 8.78 | 87000 | 0.000764 | 15

What follows are molecules tested against T2, human FXIIa (assay: Surface plasmon resonance (Biacore 4000) binding kinetics, hFXIIa). Details: 25° C.
Procedure: as §1

Row | Molecule | Kd [nM] | ka [M⁻¹ s⁻¹] | kd [s⁻¹] | t½ [min]
7 | B1 | 2.07 | 208000 | 0.00043 | 26.8
8 | B2 | 3.78 | 42800 | 0.000162 | 71.4
9 | B3 | 5.07 | 97600 | 0.000495 | 23.4

Same assay, conditions: 37° C.

Row | Molecule | Kd [nM] | ka [M⁻¹ s⁻¹] | kd [s⁻¹] | t½ [min]
10 | B1 | 1.79 | 439000 | 0.000784 | 15
11 | B2 | 4.74 | 84600 | 0.000401 | 29
12 | B3 | 6.31 | 244000 | 0.00154 | 7

Each molecule was assayed on Intrinsic and Common pathways of the coagulation cascade (assay: Activated Partial Thromboplastin Time (aPTT) in pooled normal human plasma). Details: dose response curves, pooled normal human plasma.
Assay type: biochemical
Excerpt: This Example describes the inhibitory activity of selected antibodies, as determined by four functional plasma assays: 1) Activated Partial Thromboplastin Time (aPTT), 2) Prothrombin Time (PT), 3) Thrombin Generation Assay (TGA) triggered by ellagic acid and 4) TGA triggered by Tissue Factor. The aPTT test evaluates all clotting factors of the Intrinsic and Common pathways of the coagulation cascade by measuring time for a clot to form after the addition of calcium and ellagic acid, whereas the PT test evaluates all clotting factors of the Extrinsic and Common pathways of the coagulation cascade after the addition of calcium and Tissue Factor. The TGA triggered by ellagic acid measures the rate and amount of thrombin generated via the Intrinsic and Common pathways whereas TGA triggered by Tissue Factor measures the rate and amount of thrombin generated via the Extrinsic and Common pathways.
The aPTT was determined on Diagnostica Stago STart4 Hemostasis Analyzer in the following manner: A total of 50 ul of pooled normal human plasma was added to a cuvette at 37° C. After 1 min, 5 ul of a 2× serially diluted test article (antibody or small molecule inhibitor) in PBS was added to the cuvette and allowed to incubate for 5 min. Then 50 ul of APPT-XL Ellagic Acid (Thermo Scientific) was added and allowed to incubate for 300 seconds before 50 ul of 20 mM calcium chloride (Thermo Scientific) was added to start the reaction. The measured clot time for the test article concentration was normalized to baseline (no drug) plasma clot time and plotted against log molar concentration of the test article. The results were analyzed using nonlinear regression (4-parameter logistics) with Prism 5 software (GraphPad) to obtain doubling time concentration.

Row | Molecule | effect on plasma aPTT (in words)
13 | B1 | prolonged the aPTT
14 | B2 | prolonged the aPTT
15 | B3 | prolonged the aPTT

Molecular target: T1, human FXII
Assay: Surface plasmon resonance (Biacore 4000) binding kinetics, hFXII
Details: 25° C.
Remark: another data set of the same source

Row | Molecule | 100 nM Ag Bound (RU)
16 | B1 | 327.5
17 | B2 | 146.2
18 | B3 | 134.6

Same assay, conditions: 37° C.

Row | Molecule | 100 nM Ag Bound (RU)
19 | B1 | 400.6
20 | B2 | 272.3
21 | B3 | 178.5
